Data reported in patent US20240409617A1 (published 2024).

Target: RBD-biotin
Assay: BLI

Row | Binder | Kd
1 | Ab 15 (Fc fusion) VH: QVQLVQSGGGLVKPGRSLRLSCTASGFTFGDYAMSWFRQAPGKGLEWVGFIRSKAYGGTTGYAASVKGRFTISRDDSKSIAYLQMNSLKTEDTAVYYCTTADDDMDVWGKGTTVTVSS VL: NFMLTQPHSVSESPGKTVTISCTRSSGTIASNYVQWYQQRPGSAPTTVIYEDNQRPSGVPDRFSGSIDRSSNSASLTISGLTPDDEADYYCQSYDTSNHYVFGTGTKVTVL | 6.61 nM
2 | Ab 16 (scFv, V domains shown) VH: QVQLVQSGGGVVQPGRSLRLSCAASGFTFSNYGMHWVRQAPGKGLEWVALIWERGSKKDYADSVKGRFTVSRDNSKNTLYLQMNSLRPEDTAVYFCAREGISMTGAEYFQHWGQGTLVTVSS VL: QSVLTQPPSVSGSPGQRVTMSCTGSSSNIGAGYDVHWYQQVPGAAPRLLIYGTNNRPSGVPDRFSGSKSGTSASLTITGLQAEDEADYYCQSYDNSLTDPYVFGTGTKVTVL | 0.959 nM
3 | Ab 27 (Fc fusion) VH: QVQLVQSGTEVKKPGASVKVSCKASGYSFTGSHLHWVRQAPGQGLEWMGWINPDSGVINYAQKFQGRVTLTRDTSISTAYMELSGLRSDDTAVYYCARDKAIGYVWALDYWGQGTLVTVSS VL: QSALTQPPSVSGSPGQSVTISCTGTSSDVGTYNRVSWYQQPPGKAPKLMIYEVSNRPSGVSNRFSGSKSGNTASLTISGLQAEDEADYYCSSYTRTFTYVFGTGTKVTVL | 0.906 nM
4 | Ab 25 (Fc fusion) VH: QVQLVQSGGGLVQPGGSLRLSCAASGFTFSSYWMSWVRQAPGKGLEWVANIKQDGSEKYYVDSVKGRFTISRDNAKNSLYLQMNSLRAEDTAVYYCARGFYYYGAFDIWGQGTTVTVSS VL: NFMLTQPHSVSESPGKTVTISCTGSSGSIASNYVQWYQQRPGSAPTTVIYEDNQRPSGVPDRFSGSIGSSSNSASLTISGLKTEDEADYYCQSYDSSNHWVFGGGTKLTVL | 0.223 nM
5 | Ab 13 (scFv, V domains shown) VH: QVTLKESGPKLVKPTQTLTLTCTFSGFSLSTSGVGVGWIRQPPGKALEWLALIYWDDDKRYSPSLKSRLTIAKDTSKYQVVLTMTNMDPVDTATYYCARISGSGYFYPFDIWGQGTMVTVSA VL: NFMLTQPHSVSESPGKTVTISCTRSSGSIASNYVQWYQQRPGSAPTTVIYEDNQRPSGVPDRFSGSIDSSSNSASLTISGLKTEDEADYYCQSYDSSNLWVFGGGTKLTVL | 0.922 nM
6 | Ab 20 (scFv, V domains shown) VH: QVQLVQSGGGSVKPGGSLRLSCAASGYRLSDYYMHWVRQAPGKGLEWVANIKQDGSEKYYVDSVKGRFTISRDNAKNSLYLQMNSLRAEDTAVYYCARVRGWSRGYFDYWGQGTLVTVSS VL: NFMLTQPHSVSESPGKTVTISCTGSSGSIASNYVQWYQQRPGSAPTTVIYEDNQRPSGVPDRFSGSIDSSSNSASLLISGLKTEDEADYYCQSYDSSNHWVFGGGTKLTVL | 1.9 nM
7 | Ab 17 (scFv, V domains shown) VH: QVQLVQSGGGVVQPGRSLRLSCAASGFTFDDYAMHWVRQVPGKGLEWVSGIDWNSGVIGYADSVKGRFTISRDNVKNSLYLQMNSLRTEDSALYYCAKDIGPGGSGSYYAFDIWGQGTTVTVSS VL: QSALTQPASVSGSPGQSITISCTGTSSDVGGSKYVSWYQQHPGKAPKVMIYDVTKRPSGVPDRFSGSKSGNTASLTISGLQAEDEADYYCAAWDDSLNGVVFGGGTKLTVL | 0.882 nM
8 | Ab 23 (Fc fusion) VH: EVQLVQSGAEVKKPGSSVKVSCRSSGGTFSTYGITWVRQAPGQGLEWMGRIIPSLGIPNYAQKFQGRVTITADTSVSTAWMELSSLESDDTAIYYCARENIDLATNDFWGQGTLVTVSS VL: QSALTQPPSASGSPGQSVTISCTGTSRDIGAYGYVSWYQQVPGKAPKLIIYEVRNRPSGVSSRFSGSKSGNTASLTISGLQAEDEADYYCSSYTSSSTLDVVFGGGTKLTVL | < 0.001 nM
9 | Ab 18 (scFv, V domains shown) VH: EVQLVQSGGGVVQPGRSLRVSCAASGFSFSRYGMHWVRQAPGKGLEWVAFIRHDGSKKYYADSVEGRFTISRDNSRNTVSLEMNSLRGEDTAVYYCAKDGRLEAALDDWGQGTLVTVSS VL: NFMLTQPHSMSGSAGKTVTVSCIRSSGSIANNFVQWYQQRPGSAPTTVIYEDNQRPSGVPDRFSGSIDSSSNSASLTISGLKTEDEADYYCQSYDSSNLVFGGGTRLTVL | 2.31 nM
10 | Ab 21 (scFv, V domains shown) VH: QVQLVQSGGGLVQPGGSLRLSCATSGFTFDDYAMHWVRQAPGKGLEWVSGISWNSGSIGYVDSVKGRFTISRDNRNNKVYLQMNNLRAEDTAVYYCARDWWGSIDHWGLGTLVTVSS VL: QSALTQPRSVSGSPGQSVTISCTGTSSDVGGYDYVSWYQQHPGKAPKLIIYDVSKRPSGVPDRFSGSKSGNTASLTVSGLQAEDEADYYCSSYTSSSPVVFGGGTKLTVL | 1.48 nM
